# Experimental data as given in paper PMC7598476 (2020).
# Tests used:
# hMPV B2 F GCN4 = assay: ELISA
# [1] = biological target: hMPV F protein of subgroup B1 (ELISA panel) (human metapneumovirus (subgroup B1)); assay: ELISA
# [2] = biological target: monomeric hMPV B2 F protein, treated with trypsin (human metapneumovirus (subgroup B2)); assay: ELISA
# [3] = biological target: hMPV F protein of subgroup A1 (ELISA panel) (human metapneumovirus (subgroup A1)); assay: ELISA
# [4] = biological target: recombinant hMPV B2 F protein (human metapneumovirus (subgroup B2)); assay: ELISA
# [5] = biological target: hMPV F protein of subgroup A2 (ELISA panel) (human metapneumovirus (subgroup A2)); assay: ELISA
# [6] = biological target: post-fusion trimeric hMPV B2 F (trypsin treated) (human metapneumovirus (subgroup B2)); assay: ELISA
# [7] = biological target: biotinylated monomeric hMPV B2 F protein (human metapneumovirus (subgroup B2), biotin (site not stated)); assay: BLI
Binder,EC50 (hMPV B2 F GCN4),EC50 [1],EC50 [2],EC50 [3],EC50 [4],EC50 [5],EC50 [6],koff [7]
"MPE8 monoclonal antibody (recombinant, human IgG1) (antibody, V domains shown) VH: EVQLVESGGGLVKPGGSLRLSCAASGFTFSSYSMNWVRQAPGKGLEWVSSISSSSSYIYYADSVKGRFTISRDNAKNSLYLQMNSLRAEDTAVYYCARARATGYNSITPYFDIWGQGTLVTVSS VL: QSVVTQTPSVSGAPGQRVTISCTGSSSNIGAGYDVHWYQQLPGTAPKLLIYDNNNRPSGVPDRFSASKSGTSASLAITGLQAEDEADYYCQSYDRSLSGVFGTGTKVTVL",4.7 µg/mL,3.1 µg/mL,0.63 µg/mL,1.3 µg/mL,2 µg/mL,4.3 µg/mL,1.3 µg/mL,–
"MPV458 human monoclonal antibody (antibody, V domains shown) VH: QGKLVESGGGVIQPGRSLRLSCAASGFDFSRYGLHWVRQAPGKGLEWVAVIVYAGSNKYYADSVKGRFTISKDNSKNTMHLQMSDLRTEDTAVYYCARDQAFDLWGQGTMVTVSS VL: DIQMTQSPASLSASVGDRVTITCQASQGISRSVNWYQQKPGKAPKLLIFDASHLERGVPSRFSGSGYGTDFTFTISSLQPEDIATYYCQQYDNLRISFGQGTRLEIK",0.2 µg/mL,0.39 µg/mL,0.027 µg/mL,0.33 µg/mL,0.12 µg/mL,0.39 µg/mL,0.13 µg/mL,–
"MPV458 Fab (Fab, V domains shown) VH: QGKLVESGGGVIQPGRSLRLSCAASGFDFSRYGLHWVRQAPGKGLEWVAVIVYAGSNKYYADSVKGRFTISKDNSKNTMHLQMSDLRTEDTAVYYCARDQAFDLWGQGTMVTVSS VL: DIQMTQSPASLSASVGDRVTITCQASQGISRSVNWYQQKPGKAPKLLIFDASHLERGVPSRFSGSGYGTDFTFTISSLQPEDIATYYCQQYDNLRISFGQGTRLEIK",–,–,–,–,–,–,–,8.4e-05 s⁻¹
